Laboratory results: paper PMC9512700, “Observation of conformational changes that underlie the catalytic cycle of Xrn2” (Nature Chemical Biology, 2022)

T1: CtXrn2 (Xrn2 WT, residues 1-875) (Thermochaetoides thermophila, UniProt G0S058)
T1 construct: gene CTHT_0008830; Xrn core, residues 1-875, C-terminal tag LEHHHHHH kept, E. coli BL21(DE3) CodonPlus-RIL, 100 kDa, single chain; Ile-delta1/Met methyl-labelled for NMR
T1 sequence (G0S058 1-875): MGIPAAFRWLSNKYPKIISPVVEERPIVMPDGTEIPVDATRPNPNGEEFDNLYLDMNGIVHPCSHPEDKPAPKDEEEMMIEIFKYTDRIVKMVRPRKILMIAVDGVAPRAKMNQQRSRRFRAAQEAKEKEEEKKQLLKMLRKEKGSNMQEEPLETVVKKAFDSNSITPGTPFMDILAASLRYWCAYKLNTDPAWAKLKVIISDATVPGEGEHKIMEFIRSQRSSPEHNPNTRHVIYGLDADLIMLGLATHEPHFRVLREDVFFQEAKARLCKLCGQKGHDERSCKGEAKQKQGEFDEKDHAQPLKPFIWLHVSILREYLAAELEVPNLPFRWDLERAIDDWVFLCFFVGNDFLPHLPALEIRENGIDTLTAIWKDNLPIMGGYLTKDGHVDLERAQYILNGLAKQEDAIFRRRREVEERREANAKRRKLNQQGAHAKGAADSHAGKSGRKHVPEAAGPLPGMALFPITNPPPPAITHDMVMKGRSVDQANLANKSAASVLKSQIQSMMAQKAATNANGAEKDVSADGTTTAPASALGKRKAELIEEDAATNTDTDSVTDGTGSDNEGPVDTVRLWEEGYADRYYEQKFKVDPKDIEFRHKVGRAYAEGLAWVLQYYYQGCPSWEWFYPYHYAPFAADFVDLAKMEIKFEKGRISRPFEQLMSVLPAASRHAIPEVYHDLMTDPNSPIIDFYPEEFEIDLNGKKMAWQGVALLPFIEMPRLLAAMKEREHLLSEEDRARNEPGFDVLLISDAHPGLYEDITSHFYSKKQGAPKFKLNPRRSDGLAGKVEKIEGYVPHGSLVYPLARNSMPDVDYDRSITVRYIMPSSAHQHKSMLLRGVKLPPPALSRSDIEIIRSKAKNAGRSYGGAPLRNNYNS

T2: CtXrn2 1-875 (WT) (Chaetomium thermophilum, UniProt G0S058 1-875)
T2 sequence: T1 sequence (G0S058 1-875)

T3: CtXrn2 deltaZnF (Chaetomium thermophilum, UniProt G0S058 1-875, del263-300)
T3 sequence: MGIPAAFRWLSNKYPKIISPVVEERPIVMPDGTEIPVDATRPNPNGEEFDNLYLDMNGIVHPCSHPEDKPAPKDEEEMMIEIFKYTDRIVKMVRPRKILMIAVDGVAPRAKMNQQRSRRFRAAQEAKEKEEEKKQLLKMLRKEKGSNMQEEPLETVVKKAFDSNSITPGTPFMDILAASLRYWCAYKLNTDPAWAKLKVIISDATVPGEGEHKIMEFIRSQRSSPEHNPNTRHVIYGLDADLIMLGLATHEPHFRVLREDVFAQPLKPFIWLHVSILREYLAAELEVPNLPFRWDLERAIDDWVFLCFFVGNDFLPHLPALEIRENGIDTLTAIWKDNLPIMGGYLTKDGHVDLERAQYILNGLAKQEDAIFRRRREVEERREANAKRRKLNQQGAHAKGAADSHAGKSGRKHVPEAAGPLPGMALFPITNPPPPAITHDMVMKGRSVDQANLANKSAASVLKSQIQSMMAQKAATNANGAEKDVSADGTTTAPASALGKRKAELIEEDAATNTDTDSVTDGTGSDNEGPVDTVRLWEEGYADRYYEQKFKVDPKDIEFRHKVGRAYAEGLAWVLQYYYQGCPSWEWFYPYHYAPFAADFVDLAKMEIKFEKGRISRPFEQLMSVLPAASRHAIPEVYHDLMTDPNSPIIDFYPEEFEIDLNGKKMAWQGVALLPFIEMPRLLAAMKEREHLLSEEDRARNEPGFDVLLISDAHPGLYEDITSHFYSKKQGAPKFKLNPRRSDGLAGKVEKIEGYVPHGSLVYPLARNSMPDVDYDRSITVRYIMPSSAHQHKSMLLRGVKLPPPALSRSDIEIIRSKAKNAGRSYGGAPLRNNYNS

B1: ZIKV xrRNA (structured_RNA)
RNA: GGGAGUGUUGUAAGCACCAAUUUUAGUGUUGUCAGGCCGGCGAAAGUCGCCACAGUUUGGGGAAAGCUGUGCAGCCUGUAACCCCCCCACGAAAGUGGG
modifications: 5'-monophosphate

How the values were obtained:
[1] = biological target: T1, CtXrn2 (Xrn2 WT, residues 1-875); assay: 1H-13C HMQC methyl-TROSY NMR chemical shift perturbation; assay type: binding; conditions: 313 K; 5 mM MgCl2; 50 uM protein; 500 uM pAp; around active site
[2] = biological target: T4, CtXrn2 (Xrn2 WT, residues 1-875) (Thermochaetoides thermophila, UniProt G0S058, A5F); assay: 1H-13C HMQC methyl-TROSY NMR; assay type: binding; conditions: 313 K; 5 mM MgCl2; 50 uM protein; 500 uM pAp
T4 construct: gene CTHT_0008830; Xrn core, residues 1-875, C-terminal tag LEHHHHHH kept, E. coli BL21(DE3) CodonPlus-RIL, 100 kDa, single chain; Ile-delta1/Met methyl-labelled for NMR

CtXrn2 1-875 (WT) [3] = biological target: T2, CtXrn2 1-875 (WT); assay: fluorescence anisotropy; no Mg2+, with Zn2+; Fluorescence anisotropy: 25 mM HEPES pH 7.3, 125 mM NaCl, 0.002% Triton, no Mg2+, with Zn2+, temperature not stated (room temperature used for dG); NMR: 25 mM H; conditions: protein: recombinant; label: fluorescein on 3' thiouridine (6-iodoacetamido-fluorescein); single strand
CtXrn2 deltaZnF = biological target: T3, CtXrn2 deltaZnF; assay: as above; conditions: protein: recombinant; label: fluorescein on 3' thiouridine (6-iodoacetamido-fluorescein); single strand
CtXrn2 1-875 (WT) [4] = biological target: T2, CtXrn2 1-875 (WT); assay: NMR (methyl-TROSY CSP of M704); no Mg2+; active state not formed; Fluorescence anisotropy: 25 mM HEPES pH 7.3, 125 mM NaCl, 0.002% Triton, no Mg2+, with Zn2+, temperature not stated (room temperature used for dG); NMR: 25 mM H; conditions: protein: recombinant; single strand
CtXrn2 1-875 (WT) [5] = biological target: T2, CtXrn2 1-875 (WT); assay: NMR (methyl-TROSY CSP); 5 mM Mg2+; RNA trimmed at 5' end; locked in pre-translocation state; Fluorescence anisotropy: 25 mM HEPES pH 7.3, 125 mM NaCl, 0.002% Triton, no Mg2+, with Zn2+, temperature not stated (room temperature used for dG); NMR: 25 mM H; conditions: protein: recombinant; pseudoknot with unstructured 5' end

T4 sequence (G0S058 entry or part of it A5F): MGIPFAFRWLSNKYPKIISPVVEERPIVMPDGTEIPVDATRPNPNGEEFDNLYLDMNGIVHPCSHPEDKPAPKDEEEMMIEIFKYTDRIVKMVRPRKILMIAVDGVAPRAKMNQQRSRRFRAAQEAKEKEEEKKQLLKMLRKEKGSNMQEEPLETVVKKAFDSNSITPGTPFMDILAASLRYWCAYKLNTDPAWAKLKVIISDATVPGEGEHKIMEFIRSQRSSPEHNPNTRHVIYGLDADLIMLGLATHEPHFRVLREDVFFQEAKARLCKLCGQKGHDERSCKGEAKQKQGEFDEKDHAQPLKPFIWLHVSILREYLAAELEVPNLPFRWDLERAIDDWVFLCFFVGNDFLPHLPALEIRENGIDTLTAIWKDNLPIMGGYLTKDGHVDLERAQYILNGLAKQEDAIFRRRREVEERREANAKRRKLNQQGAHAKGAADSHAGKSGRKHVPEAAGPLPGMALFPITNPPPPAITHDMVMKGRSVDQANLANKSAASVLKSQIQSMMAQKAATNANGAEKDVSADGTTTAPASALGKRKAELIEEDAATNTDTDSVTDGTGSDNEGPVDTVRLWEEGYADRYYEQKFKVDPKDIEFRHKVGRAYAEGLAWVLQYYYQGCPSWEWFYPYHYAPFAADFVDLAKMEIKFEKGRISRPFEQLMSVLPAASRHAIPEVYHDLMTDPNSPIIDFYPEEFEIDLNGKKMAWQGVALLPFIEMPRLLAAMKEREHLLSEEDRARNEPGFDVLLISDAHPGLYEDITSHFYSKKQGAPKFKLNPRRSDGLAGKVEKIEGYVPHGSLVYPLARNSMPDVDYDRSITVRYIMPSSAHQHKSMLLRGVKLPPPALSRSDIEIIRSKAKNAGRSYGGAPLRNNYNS

| Molecule | binding result (CtXrn2 1-875 (WT) [3]) | binding signal (CtXrn2 deltaZnF) | further results |
| --- | --- | --- | --- |
| Nc1ncnc2c1ncn2[C@@H]1O[C@H](COP(=O)(O)O)[C@@H](OP(=O)(O)O)[C@H]1O [pAp] | – | – | 1H-13C HMQC methyl-TROSY NMR chemical shift perturbation [1]: The binding of pAp to Xrn2 resulted in substantial chemical shift perturbations; 1H-13C HMQC methyl-TROSY NMR [2]: HMQC spectra of the Xrn2 WT:pAp complex (black) and Xrn2 A5F:pAp complex (orange) |
| GGAGU (ssRNA, 5'-monophosphate; 3'-terminal 4-thiouridine) [5-mer RNA] | binds | 1.5 fold Kd increase vs WT | – |
| GGAGGAGAGU (ssRNA, 5'-monophosphate; 3'-terminal 4-thiouridine) [10-mer RNA] | binds | ~3 fold Kd increase vs WT | – |
| AAAAA (ssDNA, 5'-phosphate) [pdA5] | – | – | binding result (CtXrn2 1-875 (WT) [4]): binds |
| B1 | – | – | binding result (CtXrn2 1-875 (WT) [5]): binds |
